From patent US11839219B2, “BVP10 protein for controlling tetranychid mites and use thereof” (priority 2021, dated 2023)

Experiments:
Tetranychus urticae = assay: Slide dipping method, miticidal activity against Tetranychus urticae; conditions: for Mortality (%): 24 hrs after dipping; for Probability Unit (P + 5): probit of mortality
Source text: (§1) Referring to the standard method for determining pest mites, namely, the slide dipping method, recommended by Food and Agriculture Organization of the United Nations (FAO), a double-faced adhesive tape is cut into pieces 2-3 cm long and stuck to one end of a microscope slide, and paper on the adhesive tape is removed with tweezers. Female adult mites with similar sizes, bright body color, and high vitality are picked with a 0# Chinese writing brush, and are stuck to the double-faced adhesive tape (note: the feet, whiskers, and mouthparts of the mites should not be stuck) on their backs, with 4 lines stuck to each piece and 10 mites in each line. The mites are placed and left in a biochemical incubator for 4 hrs at temperature of 25° C. and a relative humidity of approximately 85%, and then are observed with binoculars. […] The agent is diluted 5-7 times with water based on a preliminary test. One end of the slide with the mites is dipped into the agent solution, shaken lightly for 5 s, and then taken out. The mites, as well as the excessive agent solution therearound, are rapidly dried with absorbent paper. The slide is placed and left in the above biochemical incubator. After 24 hrs, the results are checked with the binoculars. The bodies of the mites are lightly touched with the Chinese writing brush, and those without any motion of their feet are considered to be dead. The test is repeated three times at each concentration, and the mites dipped in fresh water are taken as a control. […] An LC50 value is calculated by using SPASS 19.0 data processing software.

Panonychus citri = assay: Slide dipping method, miticidal activity against Panonychus citri; conditions: for Mortality (%): 24 hrs after dipping; for Probability Unit (P + 5): probit of mortality
Source text: as §1, with “recommended by the Food and” for “recommended by Food and”, “bright body color and high” for “bright body color, and high”, “biochemical incubator with the temperature of” for “biochemical incubator for 4 hrs at temperature of”, “of approximately 85% for 4 hrs, and then” for “of approximately 85%, and then”, “for 5 s and then” for “for 5 s, and then”, “by using the SPASS 19.0” for “by using SPASS 19.0”

Tetranychus cinnabarinus = assay: Slide dipping method, miticidal activity against Tetranychus cinnabarinus; conditions: for Mortality (%): 24 hrs after dipping; for Probability Unit (P + 5): probit of mortality
Source text: as §1, with “recommended by the Food and” for “recommended by Food and”, “bright body color and high” for “bright body color, and high”, “biochemical incubator with the temperature of” for “biochemical incubator for 4 hrs at temperature of”, “of approximately 85% for 4 hrs, and then” for “of approximately 85%, and then”, “for 5 s and then” for “for 5 s, and then”, “by using the SPASS 19.0” for “by using SPASS 19.0”
An LC50 value is calculated by using the SPASS 19.0 data processing software.

[1] = test system: strawberry red spider mites; assay: Field control of strawberry red spider mites; type: in vivo; conditions: for Control effect (%): corrected against fresh water control
Experimental: Test agents: 20% avermectin spirodiclofen suspension (Hebei Xingbai Agricultural Technology Co., Ltd., diluted 3000 times during use; and the biological mite pesticide BVP10 with the effective protein concentration of 389.5 μg/mL.
The test included three treatments, each repeated three times; blocks are randomly permuted; and the agents are applied to […] in each block with protective rows provided around the plants. […] Ten strawberry plants are taken from each block, with one leaf labeled for each plant. The number of red spider mites on both sides of each of the ten leaves are inspected. The red spider mites are directly observed with a hand-held magnifying lens, and the number of all living mites is taken down. The initial population number of the red spider mites is investigated before the application, and a total of three investigations are conducted on Day 1, Day 4, and Day 7 respectively after the application.
Calculation method of pesticidal effect: the control effect is calculated based on the initial population number of the red spider mites before the application and the number of living red spider mites on each day after the application, and the calculation formula is shown below: The data is analyzed for significance using Duncan's new multiple range method of DPS software.

[2] = Dose 19.475 μg/mL, female adult mites
[3] = Dose 38.95 μg/mL, female adult mites
[4] = Dose 77.9 μg/mL, female adult mites
[5] = Dose 389.5 μg/mL, female adult mites
[6] = Day 4 after application, field spray on strawberry leaves
[7] = Day 7 after application, field spray on strawberry leaves

B1: BVP10 protein: protein shown in SEQ ID NO:2 for controlling tetranychid mites, prokaryotically expressed in Escherichia coli BL21, about 10 kDa (protein)
chain: MLKSKIKKIAGAAVIAGALLVSVSPAKAETLPGLIWVMDKYTDAFKFDMFIKNGNEKWVYVYTRLSDGKVDVEEVKCETIYKDRCYVKQ
modifications: Sequence for protein prepared by prokaryotic expression, eukaryotic expression, or direct synthesis, based the gene sequence of SEQ ID NO 1
Mortality (%) (Tetranychus urticae; [2]): 47.2%
Probability Unit (P + 5) (Tetranychus urticae; Dose 19.475 μg/mL): 4.927
Mortality (%) (Tetranychus urticae; [3]): 60.6%
Probability Unit (P + 5) (Tetranychus urticae; Dose 38.95 μg/mL): 5.268
Mortality (%) (Tetranychus urticae; [4]): 55.9%
Probability Unit (P + 5) (Tetranychus urticae; Dose 77.9 μg/mL): 5.148
Mortality (%) (Tetranychus urticae; [5]): 68.4%
Probability Unit (P + 5) (Tetranychus urticae; Dose 389.5 μg/mL): 5.483
Medial Lethal Concentration (LC50, μg/mL) (Tetranychus urticae; female adult mites, 24 hrs, regression Y = 4.5286 + 0.3682X (r = 0.8832)): 19.07 µg/mL
Mortality (%) (Panonychus citri; [2]): 23.5%
Probability Unit (P + 5) (Panonychus citri; Dose 19.475 μg/mL): 4.276
Mortality (%) (Panonychus citri; [3]): 47.1%
Probability Unit (P + 5) (Panonychus citri; Dose 38.95 μg/mL): 4.922
Mortality (%) (Panonychus citri; [4]): 63.6%
Probability Unit (P + 5) (Panonychus citri; Dose 77.9 μg/mL): 5.349
Mortality (%) (Panonychus citri; [5]): 78.6%
Probability Unit (P + 5) (Panonychus citri; Dose 389.5 μg/mL): 5.793
Medial Lethal Concentration (LC50, μg/mL) (Panonychus citri; female adult mites, 24 hrs, regression Y = 3.0472 + 1.1072X (r = 0.9548)): 58.05 µg/mL
Medial Lethal Concentration (LC50, μg/mL) (Tetranychus cinnabarinus; 24 hrs, regression Y = 2.3766 + 1.6846X (r = 0.9797)): 36.08 µg/mL
Mortality (%) (Tetranychus cinnabarinus; Dose 19.475 μg/mL): 27.8%
Probability Unit (P + 5) (Tetranychus cinnabarinus; Dose 19.475 μg/mL): 4.413
Mortality (%) (Tetranychus cinnabarinus; Dose 38.95 μg/mL): 51.4%
Probability Unit (P + 5) (Tetranychus cinnabarinus; Dose 38.95 μg/mL): 5.039
Mortality (%) (Tetranychus cinnabarinus; Dose 77.9 μg/mL): 80.0%
Probability Unit (P + 5) (Tetranychus cinnabarinus; Dose 77.9 μg/mL): 5.840
Mortality (%) (Tetranychus cinnabarinus; Dose 389.5 μg/mL): 94.7%
Probability Unit (P + 5) (Tetranychus cinnabarinus; Dose 389.5 μg/mL): 6.616
Control effect (%) ([1]; Day 1 after application): 79.53%
Decline rate (%) of living mites ([1]; Day 1 after application, field spray on strawberry leaves): 41.14%
Residual no of mites ([1]; Day 1 after application, field spray on strawberry leaves, BVP10 389.5 μg/mL, reference diluted 3000 times): 206
Control effect (%) ([1]; Day 4 after application): 83.71%
Decline rate (%) of living mites [1, 6]: 33.14%
Residual number of mites [1, 6]: 234
Control effect (%) ([1]; Day 7 after application): 95.45%
Decline rate (%) of living mites [1, 7]: 77.14%
Residual number of mites [1, 7]: 80
